Patent US20160264649A1

Assays:
Assay in all cases: cell-based or functional assay
[1] = molecular target: HIV-1 Env of isolate THR0.18 (HIV-1)
[2] = molecular target: HIV-1 Env of isolate TRO.11 (HIV-1)
[3] = molecular target: HIV-1 Env of isolate NL43 (HIV-1)
[4] = molecular target: HIV-1 Env of isolate 98IN022 (HIV-1)
[5] = molecular target: HIV-1 Env of isolate JRFL (HIV-1)
[6] = molecular target: HIV-1 Env of isolate MGRM-Chronic-B-001 (HIV-1)
[7] = molecular target: HIV-1 Env of isolate APV_17 (HIV-1)
[8] = molecular target: HIV-1 Env of isolate MGRM-Chronic-B-023 (HIV-1)
[9] = molecular target: HIV-1 Env of isolate APV_13 (HIV-1)
[10] = molecular target: HIV-1 Env of isolate TRJ04551.58 (HIV-1)
[11] = molecular target: HIV-1 Env of isolate 97ZA012 (HIV-1)
[12] = molecular target: HIV-1 Env of isolate 93IN905 (HIV-1)
[13] = molecular target: HIV-1 Env of isolate JRCSF (HIV-1) (UniProt P20871)
[14] = molecular target: HIV-1 Env of isolate 93TH305 (HIV-1)
[15] = molecular target: HIV-1 Env of isolate PVO.4 (HIV-1)
[16] = molecular target: HIV-1 Env of isolate MGRM-Chronic-B-011 (HIV-1)
[17] = molecular target: HIV-1 Env of isolate MGRM-Chronic-B-002 (HIV-1)
[18] = molecular target: HIV-1 Env of isolate SC422661.8 (HIV-1)
[19] = molecular target: HIV-1 Env of isolate MGRM-Chronic-B-020 (HIV-1)
[20] = molecular target: HIV-1 Env of isolate MGRM-Chronic-B-010 (HIV-1)
[21] = molecular target: HIV-1 Env of isolate MGRM-Chronic-B-024 (HIV-1)
[22] = molecular target: HIV-1 Env of isolate APV_6 (HIV-1)
[23] = molecular target: HIV-1 Env of isolate MGRM-Chronic-B-017 (HIV-1)
[24] = molecular target: HIV-1 Env of isolate 6535.3 (HIV-1)
[25] = molecular target: HIV-1 Env of isolate 92 BR 020 (HIV-1)
[26] = molecular target: HIV-1 Env of isolate MGRM-Chronic-B-003 (HIV-1)
[27] = molecular target: HIV-1 Env of isolate 93MW959 (HIV-1)
[28] = molecular target: HIV-1 Env of isolate CAAN.A2 (HIV-1)
[29] = molecular target: HIV-1 Env of isolate VLGCB3 (HIV-1)
[30] = molecular target: HIV-1 Env of isolate SF162 (HIV-1) (UniProt P19550)
[31] = molecular target: HIV-1 Env of isolate MGRM-Chronic-B-008 (HIV-1)
[32] = molecular target: HIV-1 Env of isolate MGRM-Chronic-B-012 (HIV-1)
[33] = molecular target: HIV-1 Env of isolate MGRM-Chronic-B-004 (HIV-1)
[34] = molecular target: HIV-1 Env of isolate MGRM-Chronic-B-018 (HIV-1)
[35] = molecular target: HIV-1 Env of isolate QH0692.42 (HIV-1)

Sequence of PGT-137 monoclonal antibody (5345_I01) (VH): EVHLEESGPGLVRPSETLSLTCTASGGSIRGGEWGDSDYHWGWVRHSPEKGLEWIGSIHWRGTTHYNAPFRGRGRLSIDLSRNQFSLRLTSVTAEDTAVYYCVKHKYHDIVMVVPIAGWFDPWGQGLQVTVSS
Sequence of PGT-137 monoclonal antibody (5345_I01) (VL): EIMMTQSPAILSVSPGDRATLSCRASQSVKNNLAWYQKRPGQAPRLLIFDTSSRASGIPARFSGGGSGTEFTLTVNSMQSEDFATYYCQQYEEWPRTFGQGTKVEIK
Sequence of PGT-136 monoclonal antibody (5329_C19; 5366_P21) (VH): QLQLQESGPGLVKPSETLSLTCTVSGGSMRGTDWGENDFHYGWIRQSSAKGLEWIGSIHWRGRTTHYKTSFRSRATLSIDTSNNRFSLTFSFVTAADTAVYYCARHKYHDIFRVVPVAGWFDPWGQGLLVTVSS
Sequence of PGT-136 monoclonal antibody (5329_C19; 5366_P21) (VL): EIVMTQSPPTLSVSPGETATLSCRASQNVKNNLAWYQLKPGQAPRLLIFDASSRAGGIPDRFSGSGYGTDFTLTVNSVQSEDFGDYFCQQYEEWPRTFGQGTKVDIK

Substance	neutralization IC50 [1]	neutralization IC50 [2]	neutralization IC50 [3]	neutralization IC50 [4]	neutralization IC50 [5]	neutralization IC50 [6]	neutralization IC50 [7]	neutralization IC50 [8]	neutralization IC50 [9]	neutralization IC50 [10]	neutralization IC50 [11]	neutralization IC50 [12]	neutralization IC50 [13]	neutralization IC50 [14]	neutralization IC50 [15]	neutralization IC50 [16]	neutralization IC50 [17]	neutralization IC50 [18]	neutralization IC50 [19]	neutralization IC50 [20]	further results
PGT-130 monoclonal antibody (5147_N06)	> 50 µg/mL	0.257 µg/mL	> 50 µg/mL	> 50 µg/mL	0.046 µg/mL	> 50 µg/mL	10.7 µg/mL	> 50 µg/mL	0.052 µg/mL	0.023 µg/mL	1.32 µg/mL	0.02 µg/mL	0.01 µg/mL	0.021 µg/mL	5.17 µg/mL	0.153 µg/mL	> 50 µg/mL	> 50 µg/mL	0.014 µg/mL	0.006 µg/mL	neutralization IC50 [21]: 5.78 µg/mL; neutralization IC50 [22]: > 50 µg/mL; neutralization IC50 [23]: > 50 µg/mL; neutralization IC50 [24]: 0.031 µg/mL; neutralization IC50 [25]: 1.4 µg/mL; neutralization IC50 [26]: > 50 µg/mL; neutralization IC50 [27]: 8.55 µg/mL; neutralization IC50 [28]: > 50 µg/mL; neutralization IC50 [29]: 4.6 µg/mL; neutralization IC50 [30]: 0.007 µg/mL; neutralization IC50 [31]: 5.18 µg/mL; neutralization IC50 [32]: 0.373 µg/mL; neutralization IC50 [33]: 0.01 µg/mL; neutralization IC50 [34]: 31.9 µg/mL; neutralization IC50 [35]: > 50 µg/mL
PGT-131 monoclonal antibody (5136_H01)	> 50 µg/mL	1.91 µg/mL	> 50 µg/mL	> 50 µg/mL	0.454 µg/mL	> 50 µg/mL	> 50 µg/mL	> 50 µg/mL	0.189 µg/mL	0.088 µg/mL	1.81 µg/mL	0.177 µg/mL	0.029 µg/mL	0.016 µg/mL	> 50 µg/mL	6.47 µg/mL	> 50 µg/mL	> 50 µg/mL	0.053 µg/mL	0.016 µg/mL	neutralization IC50 [21]: > 50 µg/mL; neutralization IC50 [22]: > 50 µg/mL; neutralization IC50 [23]: > 50 µg/mL; neutralization IC50 [24]: 0.056 µg/mL; neutralization IC50 [25]: 6.16 µg/mL; neutralization IC50 [26]: > 50 µg/mL; neutralization IC50 [27]: > 50 µg/mL; neutralization IC50 [28]: > 50 µg/mL; neutralization IC50 [29]: > 50 µg/mL; neutralization IC50 [30]: 0.025 µg/mL; neutralization IC50 [31]: > 50 µg/mL; neutralization IC50 [32]: 15.7 µg/mL; neutralization IC50 [33]: 0.04 µg/mL; neutralization IC50 [34]: > 50 µg/mL; neutralization IC50 [35]: > 50 µg/mL
PGT-135 monoclonal antibody (5343_B08; 5344_E16)	> 50 µg/mL	0.03 µg/mL	8.03 µg/mL	0.014 µg/mL	> 50 µg/mL	> 50 µg/mL	> 50 µg/mL	0.329 µg/mL	0.716 µg/mL	> 50 µg/mL	> 50 µg/mL	0.011 µg/mL	0.131 µg/mL	> 50 µg/mL	> 50 µg/mL	> 50 µg/mL	> 50 µg/mL	21.8 µg/mL	0.057 µg/mL	> 50 µg/mL	neutralization IC50 [21]: > 50 µg/mL; neutralization IC50 [22]: > 50 µg/mL; neutralization IC50 [23]: > 50 µg/mL; neutralization IC50 [24]: > 50 µg/mL; neutralization IC50 [25]: 0.073 µg/mL; neutralization IC50 [26]: > 50 µg/mL; neutralization IC50 [27]: > 50 µg/mL; neutralization IC50 [28]: 5.15 µg/mL; neutralization IC50 [29]: 0.142 µg/mL; neutralization IC50 [30]: 0.023 µg/mL; neutralization IC50 [31]: > 50 µg/mL; neutralization IC50 [32]: 0.166 µg/mL; neutralization IC50 [33]: > 50 µg/mL; neutralization IC50 [34]: > 50 µg/mL; neutralization IC50 [35]: > 50 µg/mL
PGT-136 monoclonal antibody (5329_C19; 5366_P21)	> 50 µg/mL	0.073 µg/mL	27.7 µg/mL	13.6 µg/mL	> 50 µg/mL	> 50 µg/mL	> 50 µg/mL	> 50 µg/mL	> 50 µg/mL	> 50 µg/mL	> 50 µg/mL	0.011 µg/mL	> 50 µg/mL	20.2 µg/mL	> 50 µg/mL	> 50 µg/mL	> 50 µg/mL	> 50 µg/mL	> 50 µg/mL	> 50 µg/mL	neutralization IC50 [21]: > 50 µg/mL; neutralization IC50 [22]: > 50 µg/mL; neutralization IC50 [23]: > 50 µg/mL; neutralization IC50 [24]: > 50 µg/mL; neutralization IC50 [25]: 8.61 µg/mL; neutralization IC50 [26]: > 50 µg/mL; neutralization IC50 [27]: > 50 µg/mL; neutralization IC50 [28]: > 50 µg/mL; neutralization IC50 [29]: > 50 µg/mL; neutralization IC50 [30]: 0.482 µg/mL; neutralization IC50 [31]: > 50 µg/mL; neutralization IC50 [32]: 43.1 µg/mL; neutralization IC50 [33]: > 50 µg/mL; neutralization IC50 [34]: > 50 µg/mL; neutralization IC50 [35]: > 50 µg/mL
PGT-137 monoclonal antibody (5345_I01)	> 50 µg/mL	9.35 µg/mL	17.4 µg/mL	0.408 µg/mL	> 50 µg/mL	> 50 µg/mL	> 50 µg/mL	> 50 µg/mL	> 50 µg/mL	> 50 µg/mL	> 50 µg/mL	0.042 µg/mL	> 50 µg/mL	> 50 µg/mL	> 50 µg/mL	> 50 µg/mL	> 50 µg/mL	> 50 µg/mL	32.9 µg/mL	> 50 µg/mL	neutralization IC50 [21]: > 50 µg/mL; neutralization IC50 [22]: > 50 µg/mL; neutralization IC50 [23]: > 50 µg/mL; neutralization IC50 [24]: > 50 µg/mL; neutralization IC50 [25]: 7.81 µg/mL; neutralization IC50 [26]: > 50 µg/mL; neutralization IC50 [27]: > 50 µg/mL; neutralization IC50 [28]: > 50 µg/mL; neutralization IC50 [29]: 3.36 µg/mL; neutralization IC50 [30]: 3.41 µg/mL; neutralization IC50 [31]: > 50 µg/mL; neutralization IC50 [32]: > 50 µg/mL; neutralization IC50 [33]: > 50 µg/mL; neutralization IC50 [34]: > 50 µg/mL; neutralization IC50 [35]: > 50 µg/mL
